Consider ten molecules from paper PMC11865592 (Nature Communications, 2025).

Holding throughout (conditions): both partners purified
The target of assay [1] is T1, non-glycosylated HEV GT 4 pORF2 P domain (Hepatitis E virus genotype 4, isolate …, UniProt Q9IVZ8, strain).
T1 construct: also called HEV GT 4 P domain; source: Drosophila S2 cells, purified from cell lysates (Strep-Tactin XT, SEC); not shown: double strep tag, N-terminal, kept
The experiment in a line: SPR. On the technique in general: SPR reads the build-up and loss of mass on a sensor chip optically.

The target of assay [2] is T2, non-glycosylated HEV GT 1 pORF2 P domain (Hepatitis E virus genotype 1, isolate …, UniProt P33426, strain).
T2 construct: also called HEV GT 1 P domain; source: Drosophila S2 cells, purified from cell lysates (Strep-Tactin XT, SEC); not shown: double strep tag, N-terminal, kept
The assay can be described thus: SPR.

The target in assay [3] is T3, non-glycosylated rat HEV pORF2 P domain (Rat hepatitis E virus, R68/DEU/2009 in …, strain).
T3 construct: also called rat HEV P domain; source: Drosophila S2 cells, purified from cell lysates (Strep-Tactin XT, SEC); not shown: double strep tag, N-terminal, kept
The experiment in a line: SPR.

For assay [4], the target named is T4, non-glycosylated HEV GT 2 pORF2 P domain (Hepatitis E virus genotype 2, isolate …, UniProt Q03500, strain).
T4 construct: also called HEV GT 2 P domain; source: Drosophila S2 cells, purified from cell lysates (Strep-Tactin XT, SEC); not shown: double strep tag, N-terminal, kept
The assay can be described thus: SPR.

For assay [5], the target named is T5, non-glycosylated rat HEV pORF2 P domain (Rat hepatitis E virus, R68/DEU/2009 in …).
T5 construct: not shown: double strep tag, N-terminal, kept
The assay can be described thus: SPR.

Assay [6] concerns the target T5, non-glycosylated rat HEV pORF2 P domain. The assay can be described thus: ELISA; plates coated with 100 ng P domain per well in PBS overnight at 4 °C; antibody (IgG) at 2 μg/ml, 1 h at room temperature; HRP-conjugated goat anti-human antibody. (An ELISA detects its analyte on a solid surface through an enzyme-linked reagent.)
Assay [7] concerns the target T6, non-glycosylated HEV GT 3 pORF2 P domain dimer (amino acids 456-660), expressed in the cytosol (Hepatitis E virus genotype 3, isolate …, strain).
T6 construct: not shown: double strep tag, N-terminal, kept
The assay is described as above.

The target of assay [8] is T7, non-glycosylated HEV GT 2 pORF2 P domain (Hepatitis E virus genotype 2, isolate …, UniProt Q03500, strain).
T7 construct: also called GT 2 P domain; not shown: double strep tag, N-terminal, kept
Described as above.

Assay [9] concerns the target T8, non-glycosylated HEV GT 4 pORF2 P domain (Hepatitis E virus genotype 4, isolate …, UniProt Q9IVZ8, strain).
T8 construct: also called GT 4 P domain; not shown: double strep tag, N-terminal, kept
The assay is described as above.

Assay [10] deals with T9, non-glycosylated HEV GT 3 pORF2 P domain (Hepatitis E virus genotype 3, …).
T9 construct: also called non-glycosylated GT 3 P domain; HEV GT3 P domain; not shown: double strep tag, N-terminal, kept
The experiment in a line: SPR.

In assay [11] the target is T6, non-glycosylated HEV GT 3 pORF2 P …. The experiment in a line: SPR.
Assay [12] addresses T10, glycosylated HEV GT 3 pORF2 P domain dimer (amino acids 456-660), secreted, carrying a glycan at N562 (Hepatitis E virus genotype 3, isolate …, strain).
T10 construct: not shown: double strep tag, N-terminal, kept
The experiment in a line: SPR.

In assay [13] the target is T10, glycosylated HEV GT 3 pORF2 P domain …. The experiment in a line: ELISA; plates coated with 100 ng P domain per well in PBS overnight at 4 °C; antibody (IgG) at 2 μg/ml, 1 h at room temperature; HRP-conjugated goat anti-human antibody.

B1: scFv p60.12 (scFv, V domains shown)
VH: QVQLVQSGAEVKKPGSSVKVSCKASGDTFSSYVISWVRQAPGQGLEWMGGIIPIIGTANYAPKFQDTVTITADKSTNTVYMEMRSLRSEDTAVYYCASNVQLQRRGNWFDPWGQGTLVTVSS
VL: QSALTQPASVSGSPGQSITISCTGTSSDIGDYNFVSWYQQHPGKAPKLMIFDVTNRPSGVSNRFSGSKSGNTASLTISGLQVEDEADYYCSSYTSTNTPVVFGGGTKLTVL
notes: also called bnAb p60.12; nAb p60.12
One may read the Kd as the concentration at which binding is half-saturated. A higher Kd goes with lower affinity. The term koff denotes a measure of how fast the partners let go of each other. With B1, the Kd is 8.75 nM in assay [1], 3.29 nM in assay [2], 5590 nM in assay [3] and 0.509 nM in assay [4]. Also, the koff in assay [1] came to 0.000609 s⁻¹; in assay [2], 0.000325 s⁻¹; in [3], 0.246 s⁻¹; in assay [4], 2.96e-05 s⁻¹.

B2: p60.12 scFv (SPR analyte) (scFv, V domains shown)
VH: QVQLVQSGAEVKKPGSSVKVSCKASGDTFSSYVISWVRQAPGQGLEWMGGIIPIIGTANYAPKFQDTVTITADKSTNTVYMEMRSLRSEDTAVYYCASNVQLQRRGNWFDPWGQGTLVTVSS
VL: QSALTQPASVSGSPGQSITISCTGTSSDIGDYNFVSWYQQHPGKAPKLMIFDVTNRPSGVSNRFSGSKSGNTASLTISGLQVEDEADYYCSSYTSTNTPVVFGGGTKLTVL
On to B2, for which, in assay [5], the “fold lower affinity than to the other four P domains” value was about 1000 fold.

B3: murine bnAb 8G12 (antibody, V domains shown)
VH: QLQQSGPELVKPGASVKISCKASGYTFTDFNMHWVKQSHGKSLEWIGYIYPYNGITGQNQKFKSKATLTVDNSSSSAYMELRSLTSEDSAVYYCARERFGVGNNYAWFTYWGQGTLVTVSS
VL: DIQMTQSPASLSVSVGETVTITCRASENIYSNLVWYQQKQGKSPQVLVYAATNLPDGVPSRFSGSGSGTQYSLKINSLQSEDSGSYYCQHFWETPFTFGSGTKLEIK
notes: also called control bnAb 8G12
As to B3, the binding result in [6] is reported as “no binding”; in [7], “binds”; in assay [8], “binds”; in assay [9], “binds”.

B4: scFv p60.15 (scFv, V domains shown)
VH: EVQLVQSGAELKKPGESLRISCKGSGYDFANYWIGWVRQMPGKGLEWMGIIYPRDSDIRYSPSFQGQVTISADKSISTAYLQLSSLKASDTAMYYCARHLRGLRLGELFPFDYWGQGTLVTVSS
VL: AIQLTQSPSSLSASVGDSVTITCRASQDIFSYLAWYQQKPGKAPKLLIYAASTLQSGVPSRFSGSGSGTDFTLTISSLQPEDFATYYCQQLNRYPFAFGPGTKVDIK
notes: also called bnAb p60.15; nAb p60.15
In assay [10], B4 returned a Kd of 0.166 nM and a koff of 5.18e-05 s⁻¹.

B5: p60.15 IgG1 (antibody, V domains shown)
VH: EVQLVQSGAELKKPGESLRISCKGSGYDFANYWIGWVRQMPGKGLEWMGIIYPRDSDIRYSPSFQGQVTISADKSISTAYLQLSSLKASDTAMYYCARHLRGLRLGELFPFDYWGQGTLVTVSS
VL: AIQLTQSPSSLSASVGDSVTITCRASQDIFSYLAWYQQKPGKAPKLLIYAASTLQSGVPSRFSGSGSGTDFTLTISSLQPEDFATYYCQQLNRYPFAFGPGTKVDIK
notes: also called nAb p60.15; bnAb p60.15
Take B5: in assay [6], the binding result is recorded as “no binding (tested: 2 μg/ml)”.

B6: scFv p60.1 (scFv, V domains shown)
VH: EVQLQQSGPGLVKPSQTLSLICAISGDSVSTINAAWNWIRQSPSRGLEWLGRTYYRSKWYHEYATSVQGRIIITPDTSKNQFSLQLNSVTPEDSAVYFCARDRGPTPFDFWGQGTLVTVSS
VL: DIQMTQSPSSLSASVGDSVTITCRANQSISRSLNWYQQQPGKAPNLLIYAASHLHSGVSSRFSGSGSGADFALTISSLQPEDFATYHCQQSFVTPFTFGPGTKVDLK
notes: also called bnAb p60.1; nAb p60.1
For the molecule B6, the dissociation constant (Kd) stood at 0.0382 nM in [1], 0.0238 nM in assay [2], 4930 nM in assay [3] and 0.128 nM in assay [4]. Also, the koff in assay [1] is 5.14e-05 s⁻¹; in [2] it was 2.56e-05 s⁻¹; in [3], 0.456 s⁻¹; in [4], 8.16e-05 s⁻¹.

B7: p60.1 scFv (SPR analyte) (scFv, V domains shown)
VH: EVQLQQSGPGLVKPSQTLSLICAISGDSVSTINAAWNWIRQSPSRGLEWLGRTYYRSKWYHEYATSVQGRIIITPDTSKNQFSLQLNSVTPEDSAVYFCARDRGPTPFDFWGQGTLVTVSS
VL: DIQMTQSPSSLSASVGDSVTITCRANQSISRSLNWYQQQPGKAPNLLIYAASHLHSGVSSRFSGSGSGADFALTISSLQPEDFATYHCQQSFVTPFTFGPGTKVDLK
notes: also called scFv-p60.1
On to B7, for which the “fold lower affinity than to the other four P domains” value in [5] was about 1000 fold.

B8: scFv p61.15 (scFv, V domains shown)
VH: QVQLVQSGAEVKKPGASVKVSCKASGYTFTNYFMHWVRQAPGQGLEWMGVFNPRGGSTTYAQKFQGRITMTSDPSTSTVYMELTSLTSEDTAMYYCARMGSVTGPVGHRWLDPWGQGTLVTVSS
VL: EIVLTQSPATLSLSPGERAALSCRASQSVDTYLAWYQQKPGQAPRLLIYDASTRAPGIPARFSGSGSGTDFTLTISSLEPEDFAVYYCQQRYNWPPITFGQGTRLEIK
notes: also called bnAb p61.15; nAb p61.15
In the case of B8, the Kd in [10] is 0.0816 nM; in [1], 0.154 nM; in assay [2] it was 1.51 nM; in assay [4], 0.896 nM. Besides, the koff is 2.56e-05 s⁻¹ in [10], 0.000142 s⁻¹ in assay [1], 0.000604 s⁻¹ in assay [2] and 0.000585 s⁻¹ in assay [4].

B9: p61.15 scFv (SPR analyte) (scFv, V domains shown)
VH: QVQLVQSGAEVKKPGASVKVSCKASGYTFTNYFMHWVRQAPGQGLEWMGVFNPRGGSTTYAQKFQGRITMTSDPSTSTVYMELTSLTSEDTAMYYCARMGSVTGPVGHRWLDPWGQGTLVTVSS
VL: EIVLTQSPATLSLSPGERAALSCRASQSVDTYLAWYQQKPGQAPRLLIYDASTRAPGIPARFSGSGSGTDFTLTISSLEPEDFAVYYCQQRYNWPPITFGQGTRLEIK
notes: also called scFv-p61.15
For the molecule B9, the binding result in assay [11] and in [12] was “binds” throughout.

B10: p61.15 IgG1 (antibody, V domains shown)
VH: QVQLVQSGAEVKKPGASVKVSCKASGYTFTNYFMHWVRQAPGQGLEWMGVFNPRGGSTTYAQKFQGRITMTSDPSTSTVYMELTSLTSEDTAMYYCARMGSVTGPVGHRWLDPWGQGTLVTVSS
VL: EIVLTQSPATLSLSPGERAALSCRASQSVDTYLAWYQQKPGQAPRLLIYDASTRAPGIPARFSGSGSGTDFTLTISSLEPEDFAVYYCQQRYNWPPITFGQGTRLEIK
notes: also called nAb p61.15; bnAb p61.15
As for B10, the binding result is reported as “no binding (tested: 2 μg/ml)” in assay [6], “binds” in assay [7] and “binds” in assay [13].
